Measured values: patent US9738911B2, “Methods of producing 7-carbon chemicals via pyruvate and succinate semialdehyde aldol condensation” (INVISTA North America S.a r.l., priority 2012, dated 2017)

Legend:
Type in all cases: biochemical
[1] = Carboxylate reductase activity assay, pimelate to pimelate semialdehyde; conditions: 2 mM pimelate, 1 mM ATP, 1 mM NADPH, enhanced by sfp gene product, room temperature, 20 min; against empty vector control (FIG. 10)
Procedure: A sequence encoding a HIS-tag was added to the genes from Segniliparus rugosus and Segniliparus rotundus that encode the carboxylate reductases of SEQ ID NOs: 4 and 7, respectively (see FIGS. 7C and 7F), such that N-terminal HIS tagged carboxylate reductases could be produced. Each of the modified genes was cloned into a pET Duet expression vector along with a sfp gene encoding a HIS-tagged phosphopantetheine transferase from Bacillus subtilis, both under the T7 promoter. Each expression vector was transformed into a BL21[DE3] E. coli host and the resulting recombinant E. coli strains were cultivated at 37° C. in a 250 mL shake flask culture containing 50 mL LB media and antibiotic selection pressure, with shaking at 230 rpm. Each culture was induced overnight at 37° C. using an auto-induction media.
The pellet from each induced shake flask culture was harvested via centrifugation. Each pellet was resuspended and lysed via sonication, and the cell debris was separated from the supernatant via centrifugation. […]
Enzyme activity assays (i.e., from pimelate to pimelate semialdehyde) were performed in triplicate in a buffer composed of a final concentration of 50 mM HEPES buffer (pH=7.5), 2 mM pimelate, 10 mM MgCl, 1 mM ATP and 1 mM NADPH. […] The consumption of NADPH was monitored by absorbance at 340 nm.

[2] = Carboxylate reductase activity assay, pimelate semialdehyde to heptanedial; conditions: 2 mM pimelate semialdehyde, 1 mM ATP, 1 mM NADPH, enhanced by sfp gene product, room temperature, 20 min; against empty vector control (FIG. 13)
Procedure: The N-terminal His-tagged carboxylate reductase of SEQ ID NO 7 (see Example 4 and FIG. 7F) was assayed using pimelate semialdehyde as substrate. The enzyme activity assay was performed in triplicate in a buffer composed of a final concentration of 50 mM HEPES buffer (pH=7.5), 2 mM pimelate semialdehyde, 10 mM MgCl2, 1 mM ATP and 1 mM NADPH. The enzyme activity assay reaction was initiated by adding purified carboxylate reductase and phosphopantetheine transferase or the empty vector control to the assay buffer containing the pimelate semialdehyde and then incubated at room temperature for 20 min. The consumption of NADPH was monitored by absorbance at 340 nm.

[3] = Carboxylate reductase activity assay, N7-acetyl-7-aminoheptanoate to N7-acetyl-7-aminoheptanal; conditions: 2 mM N7-acetyl-7-aminoheptanoate, 1 mM ATP, 1 mM NADPH, enhanced by sfp gene product, room temperature, 20 min; against empty vector control (FIG. 12)
Procedure: The activity of each of the N-terminal His-tagged carboxylate reductases of SEQ ID NOs: 3, 6, and 7 (see Examples 4, and FIGS. 7B, 7E, and 7F) for converting N7-acetyl-7-aminoheptanoate to N7-acetyl-7-aminoheptanal was assayed in triplicate in a buffer composed of a final concentration of 50 mM HEPES buffer (pH=7.5), 2 mM N7-acetyl-7-aminoheptanoate, 10 mM MgCl2, 1 mM ATP, and 1 mM NADPH. The assays were initiated by adding purified carboxylate reductase and phosphopantetheine transferase or the empty vector control to the assay buffer containing the N7-acetyl-7-aminoheptanoate then incubated at room temperature for 20 min. The consumption of NADPH was monitored by absorbance at 340 nm.

substrate acceptance, consumption of NADPH by absorbance at 340 nm [1]: accepted pimelate as substrate
B1: SEQ ID NO 7: Segniliparus rotundus carboxylate reductase (Genbank Accession No. ADG98140.1) (protein, listed as Segniliparus rotundus)
chain: MTQSHTQGPQASAAHSRLARRAAELLATDPQAAATLPDPEVVRQATRPGLRLAERVDAILSGYADRPALGQRSFQTVKDPITGRSSVELLPTFDTITYRELRERATAIASDLAHHPQAPAKPGDFLASIGFISVDYVAIDIAGVFAGLTAVPLQTGATLATLTAITAETAPTLFAASIEHLPTAVDAVLATPSVRRLLVFDYRAGSDEDREAVEAAKRKIADAGSSVLVDVLDEVIARGKSAPKAPLPPATDAGDDSLSLLIYTSGSTGTPKGAMYPERNVAHFWGGVWAAAFDEDAAPPVPAINITFLPLSHVASRLSLMPTLARGGLMHFVAKSDLSTLFEDLKLARPTNLFLVPRVVEMLYQHYQSELDRRGVQDGTREAEAVKDDLRTGLLGGRILTAGFGSAPLSAELAGFIESLLQIHLVDGYGSTEAGPVWRDGYLVKPPVTDYKLIDVPELGYFSTDSPHPRGELAIKTQTILPGYYKRPETTAEVFDEDGFYLTGDVVAQIGPEQFAYVDRRKNVLKLSQGEFVTLAKLEAAYSSSPLVRQLFVYGSSERSYLLAVIVPTPDALKKFGVGEAAKAALGESLQKIARDEGLQSYEVPRDFIIETDPFTVENGLLSDARKSLRPKLKEHYGERLEAMYKELADGQANELRDIRRGVQQRPTLETVRRAAAAMLGASAAEIKPDAHFTDLGGDSLSALTFSNFLHDLFEVDVPVGVIVSAANTLGSVAEHIDAQLAGGRARPTFATVHGKGSTTIKASDLTLDKFIDEQTLEAAKHLPKPADPPRTVLLTGANGWLGRFLALEWLERLAPAGGKLITIVRGKDAAQAKARLDAAYESGDPKLAGHYQDLAATTLEVLAGDFSEPRLGLDEATWNRLADEVDFISHPGALVNHVLPYNQLFGPNVAGVAEIIKLAITTRIKPVTYLSTVAVAAGVEPSALDEDGDIRTVSAERSVDEGYANGYGNSKWGGEVLLREAHDRTGLPVRVFRSDMILAHQKYTGQVNATDQFTRLVQSLLATGLAPKSFYELDAQGNRQRAHYDGIPVDFTAESITTLGGDGLEGYRSYNVFNPHRDGVGLDEFVDWLIEAGHPITRIDDYDQWLSRFETSLRGLPESKRQASVLPLLHAFARPGPAVDGSPFRNTVFRTDVQKAKIGAEHDIPHLGKALVLKYADDIKQLGLL
substrate acceptance, consumption of NADPH by absorbance at 340 nm [2]: accepted pimelate semialdehyde as substrate
substrate acceptance, consumption of NADPH by absorbance at 340 nm [3]: accepted N7-acetyl-7-aminoheptanoate as substrate
